According to the supplement of paper PMC9876800:

test system: peptide library, one residue held at a place counted from the S/T acceptor; test: relative phosphorylation of the sub-library (ratio to the mean residue at this position); human; higher = residue favoured; details: K fixed; at +2
Summary of the method: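 Purified recombinant kinases (human or orthologue constructs) were incubated in 384-well plates with biotinylated degenerate peptide sub-libraries, each fixing one residue at one position around a central Ser/Thr. Peptides were at 50 μM, with 50 μM ATP spiked with γ-32P-ATP, for 90 min under kinase-specific conditions. Spots on streptavidin membranes were phosphorimaged and quantified by densitometry. Relative sub-library phosphorylation is a ratio to the mean residue at that position.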

AURKA, construct: Full length, sequence (O14965 whole entry, looked up): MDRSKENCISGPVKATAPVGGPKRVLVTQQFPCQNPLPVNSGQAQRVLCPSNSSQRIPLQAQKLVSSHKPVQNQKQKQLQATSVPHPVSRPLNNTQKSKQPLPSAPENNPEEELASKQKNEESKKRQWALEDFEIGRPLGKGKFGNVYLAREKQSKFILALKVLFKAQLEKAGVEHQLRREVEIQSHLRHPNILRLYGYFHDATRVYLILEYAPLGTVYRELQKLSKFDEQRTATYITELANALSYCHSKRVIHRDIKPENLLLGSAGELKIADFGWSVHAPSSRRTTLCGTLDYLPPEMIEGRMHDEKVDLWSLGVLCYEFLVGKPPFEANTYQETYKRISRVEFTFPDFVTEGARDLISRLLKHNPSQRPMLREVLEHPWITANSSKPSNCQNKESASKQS
RIPK1, construct: aa1-327, sequence (Q13546 1-327, looked up): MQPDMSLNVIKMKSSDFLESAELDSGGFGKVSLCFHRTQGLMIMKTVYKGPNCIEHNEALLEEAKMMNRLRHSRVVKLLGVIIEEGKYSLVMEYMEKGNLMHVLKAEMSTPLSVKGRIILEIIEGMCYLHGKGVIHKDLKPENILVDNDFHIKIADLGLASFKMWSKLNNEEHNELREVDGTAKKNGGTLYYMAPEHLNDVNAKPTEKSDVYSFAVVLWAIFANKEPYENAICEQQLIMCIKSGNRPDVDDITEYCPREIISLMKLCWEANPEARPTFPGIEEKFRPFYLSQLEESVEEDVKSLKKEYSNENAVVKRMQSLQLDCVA

Row | Substance | relative phosphorylation
1 | RIPK1, construct: aa1-327 (from UniProt Q13546) | 0.639
2 | AURKA, construct: Full length (from UniProt O14965) | 0.324
3 | PRKACB, construct: Full length (from UniProt P22694) | 0.797

same assay, conditions: K fixed; at +3

Row | Substance | relative phosphorylation
4 | RIPK1, construct: aa1-327 (from UniProt Q13546) | 0.517
5 | AURKA, construct: Full length (from UniProt O14965) | 0.844
6 | PRKACB, construct: Full length (from UniProt P22694) | 0.927

same assay, conditions: K fixed; at +4

Row | Substance | relative phosphorylation
7 | RIPK1, construct: aa1-327 (from UniProt Q13546) | 0.762
8 | AURKA, construct: Full length (from UniProt O14965) | 1.19
9 | PRKACB, construct: Full length (from UniProt P22694) | 0.89

same assay, conditions: K fixed; at -1

Row | Substance | relative phosphorylation
10 | RIPK1, construct: aa1-327 (from UniProt Q13546) | 1.83
11 | AURKA, construct: Full length (from UniProt O14965) | 0.707
12 | PRKACB, construct: Full length (from UniProt P22694) | 1.92

same assay, conditions: K fixed; at -2

Row | Substance | relative phosphorylation
13 | RIPK1, construct: aa1-327 (from UniProt Q13546) | 1.3
14 | AURKA, construct: Full length (from UniProt O14965) | 1.32
15 | PRKACB, construct: Full length (from UniProt P22694) | 3.26

same assay, conditions: K fixed; at -3

Row | Substance | relative phosphorylation
16 | RIPK1, construct: aa1-327 (from UniProt Q13546) | 1.27
17 | AURKA, construct: Full length (from UniProt O14965) | 1.58
18 | PRKACB, construct: Full length (from UniProt P22694) | 2.66

same assay, conditions: K fixed; at -4

Row | Substance | relative phosphorylation
19 | RIPK1, construct: aa1-327 (from UniProt Q13546) | 1.06
20 | AURKA, construct: Full length (from UniProt O14965) | 1.35
21 | PRKACB, construct: Full length (from UniProt P22694) | 1.93

same assay, conditions: K fixed; at -5

Row | Substance | relative phosphorylation
22 | RIPK1, construct: aa1-327 (from UniProt Q13546) | 1.1
23 | AURKA, construct: Full length (from UniProt O14965) | 1.38
24 | PRKACB, construct: Full length (from UniProt P22694) | 2.25

same assay, conditions: L fixed; at +1

Row | Substance | relative phosphorylation
25 | RIPK1, construct: aa1-327 (from UniProt Q13546) | 0.829
26 | AURKA, construct: Full length (from UniProt O14965) | 2.05
27 | PRKACB, construct: Full length (from UniProt P22694) | 1.06

same assay, conditions: L fixed; at +2

Row | Substance | relative phosphorylation
28 | RIPK1, construct: aa1-327 (from UniProt Q13546) | 1.21
29 | AURKA, construct: Full length (from UniProt O14965) | 0.784
30 | PRKACB, construct: Full length (from UniProt P22694) | 0.634

same assay, conditions: L fixed; at +3

Row | Substance | relative phosphorylation
31 | RIPK1, construct: aa1-327 (from UniProt Q13546) | 1.09
32 | AURKA, construct: Full length (from UniProt O14965) | 0.812
33 | PRKACB, construct: Full length (from UniProt P22694) | 0.785

same assay, conditions: L fixed; at +4

Row | Substance | relative phosphorylation
34 | RIPK1, construct: aa1-327 (from UniProt Q13546) | 0.947
35 | AURKA, construct: Full length (from UniProt O14965) | 0.649
36 | PRKACB, construct: Full length (from UniProt P22694) | 0.713

same assay, conditions: L fixed; at -1

Row | Substance | relative phosphorylation
37 | RIPK1, construct: aa1-327 (from UniProt Q13546) | 1.01
38 | AURKA, construct: Full length (from UniProt O14965) | 1.32
39 | PRKACB, construct: Full length (from UniProt P22694) | 0.648

same assay, conditions: L fixed; at -2

Row | Substance | relative phosphorylation
40 | RIPK1, construct: aa1-327 (from UniProt Q13546) | 1.19
41 | AURKA, construct: Full length (from UniProt O14965) | 0.182
42 | PRKACB, construct: Full length (from UniProt P22694) | 0.219

same assay, conditions: L fixed; at -3

Row | Substance | relative phosphorylation
43 | RIPK1, construct: aa1-327 (from UniProt Q13546) | 0.986
44 | AURKA, construct: Full length (from UniProt O14965) | 0.367
45 | PRKACB, construct: Full length (from UniProt P22694) | 0.183

same assay, conditions: L fixed; at -4

Row | Substance | relative phosphorylation
46 | RIPK1, construct: aa1-327 (from UniProt Q13546) | 0.935
47 | AURKA, construct: Full length (from UniProt O14965) | 0.766
48 | PRKACB, construct: Full length (from UniProt P22694) | 0.532

same assay, conditions: L fixed; at -5

Row | Substance | relative phosphorylation
49 | RIPK1, construct: aa1-327 (from UniProt Q13546) | 1.14
50 | AURKA, construct: Full length (from UniProt O14965) | 0.753
51 | PRKACB, construct: Full length (from UniProt P22694) | 0.557

same assay, conditions: M fixed; at +1

Row | Substance | relative phosphorylation
52 | RIPK1, construct: aa1-327 (from UniProt Q13546) | 1.38
53 | AURKA, construct: Full length (from UniProt O14965) | 1.76
54 | PRKACB, construct: Full length (from UniProt P22694) | 1.46

same assay, conditions: M fixed; at +2

Row | Substance | relative phosphorylation
55 | RIPK1, construct: aa1-327 (from UniProt Q13546) | 1.34
56 | AURKA, construct: Full length (from UniProt O14965) | 0.832
57 | PRKACB, construct: Full length (from UniProt P22694) | 0.701

same assay, conditions: M fixed; at +3

Row | Substance | relative phosphorylation
58 | RIPK1, construct: aa1-327 (from UniProt Q13546) | 1.34
59 | AURKA, construct: Full length (from UniProt O14965) | 0.752
60 | PRKACB, construct: Full length (from UniProt P22694) | 0.79

same assay, conditions: M fixed; at +4

Row | Substance | relative phosphorylation
61 | RIPK1, construct: aa1-327 (from UniProt Q13546) | 1.11
62 | AURKA, construct: Full length (from UniProt O14965) | 1
63 | PRKACB, construct: Full length (from UniProt P22694) | 0.747

same assay, conditions: M fixed; at -1

Row | Substance | relative phosphorylation
64 | RIPK1, construct: aa1-327 (from UniProt Q13546) | 1.18
